Data as given in publication PMC6393309 (Nucleic Acids Research, 2019).
Several values for one entry are separate records, joined by “and”; a condition that tells them apart may be missing. Equal values may be shown once. Entries after “also recorded” stand apart in the source; their conditions may differ. Read-outs that look alike come from different tables or passages of the source. Residues, ends and D or L forms follow the SMILES beside them. No end group written: not given here. *: point of attachment. 5FAM = O=C1OC2(c3ccc(O)cc3Oc3cc(O)ccc32)c2ccc(C(=O)*)cc21

B6: λ Exonuclease, full-length, untagged (enzyme)
chain: MTPDIILQRTGIDVRAVEQGDDAWHKLRLGVITASEVHNVIAKPRSGKKWPDMKMSYFHTLLAEVCTGVAPEVNAKALAWGKQYENDARTLFEFTSGVNVTESPIIYRDESMRTACSPDGLCSDGNGLELKCPFTSRDFMKFRLGGFEAIKSAYMAQVQYSMWVTRKNAWYFANYDPRMKREGLHYVVIERDEKYMASFDEIVPEFIEKMDEALAEIGFVFGEQWR

Legend:
[1] = target: T1, λ Exo – Redβ complex (Escherichia phage lambda, UniProt P03698); assay: Fluorescence anisotropy binding of SSB-Ct peptide to λ Exo–Redβ complex; parameters: species or system Bacteriophage λ
T1 sequence (P03698 1-261): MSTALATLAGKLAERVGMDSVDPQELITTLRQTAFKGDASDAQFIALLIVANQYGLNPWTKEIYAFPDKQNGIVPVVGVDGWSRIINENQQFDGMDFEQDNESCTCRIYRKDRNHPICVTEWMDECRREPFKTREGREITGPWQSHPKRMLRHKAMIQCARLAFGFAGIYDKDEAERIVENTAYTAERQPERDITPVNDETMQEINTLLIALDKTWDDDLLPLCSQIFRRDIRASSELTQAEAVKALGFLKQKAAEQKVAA

[2] = target: T2, Redβ (Escherichia phage lambda, UniProt P03698); assay: Fluorescence anisotropy binding of SSB-Ct peptide to Redβ; parameters: species or system Bacteriophage λ; settings: 20 nM FAM-WMDFDDDIPA, full-length Redβ, pH 7.5, 25°C
T2 sequence (P03698 1-261): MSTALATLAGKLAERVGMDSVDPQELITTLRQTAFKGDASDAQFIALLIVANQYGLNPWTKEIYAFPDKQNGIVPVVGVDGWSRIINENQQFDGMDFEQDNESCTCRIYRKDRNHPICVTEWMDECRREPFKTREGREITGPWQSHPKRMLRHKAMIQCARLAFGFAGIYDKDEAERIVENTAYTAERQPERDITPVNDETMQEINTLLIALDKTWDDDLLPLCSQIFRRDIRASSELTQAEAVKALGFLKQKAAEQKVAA

[3] = cited from earlier work
[4] = tested on: λ Exo; settings: cited from earlier work
[5] = cited from earlier work; for dsDNA relative to ssDNA recombination: individual CTD mutations
[6] = tested on: GB2005 E. coli cells; assay: ssDNA recombination assay; assay type: cell-based; settings: % of WT colonies per 10^8 viable cells
[7] = tested on: GB2005 E. coli cells; assay: dsDNA recombination assay; assay type: cell-based; settings: % of WT colonies per 10^8 viable cells
[8] = tested on: SSB; settings: cited from earlier work
[9] = target: B6; assay: crystal structure
[10] = tested on: ssDNA or dsDNA; settings: cited from earlier work
[11] = target: the molecule itself; assay: crystal structure
[12] = target: T3, 6His-tagged Escherichia coli exonuclease I (Escherichia coli, UniProt P04995 1-475); assay: fluorescence polarisation
T3 sequence: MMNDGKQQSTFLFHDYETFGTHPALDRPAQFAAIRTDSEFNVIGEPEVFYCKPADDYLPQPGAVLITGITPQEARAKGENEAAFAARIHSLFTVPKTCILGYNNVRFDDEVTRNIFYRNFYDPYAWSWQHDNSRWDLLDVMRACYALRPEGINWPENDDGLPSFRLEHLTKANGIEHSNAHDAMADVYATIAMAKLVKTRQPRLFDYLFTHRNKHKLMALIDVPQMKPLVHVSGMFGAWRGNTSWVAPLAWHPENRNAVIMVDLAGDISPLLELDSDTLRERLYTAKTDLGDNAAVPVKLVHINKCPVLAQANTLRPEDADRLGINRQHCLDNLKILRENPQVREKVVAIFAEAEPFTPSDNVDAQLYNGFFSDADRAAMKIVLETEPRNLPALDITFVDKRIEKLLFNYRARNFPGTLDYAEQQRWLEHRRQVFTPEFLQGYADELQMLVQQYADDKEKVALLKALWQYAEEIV

[13] = target: T4, complex of λ Exo and full-length untagged Redβ (bacteriophage λ, UniProt P03697;P03698); assay: fluorescence polarisation
T4 sequence 1: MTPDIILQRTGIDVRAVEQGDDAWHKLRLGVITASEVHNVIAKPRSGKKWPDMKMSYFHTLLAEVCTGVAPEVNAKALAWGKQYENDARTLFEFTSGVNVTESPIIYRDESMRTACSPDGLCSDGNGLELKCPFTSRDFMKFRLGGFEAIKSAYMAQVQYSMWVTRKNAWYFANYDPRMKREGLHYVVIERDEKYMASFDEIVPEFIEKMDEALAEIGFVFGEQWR
T4 sequence 2: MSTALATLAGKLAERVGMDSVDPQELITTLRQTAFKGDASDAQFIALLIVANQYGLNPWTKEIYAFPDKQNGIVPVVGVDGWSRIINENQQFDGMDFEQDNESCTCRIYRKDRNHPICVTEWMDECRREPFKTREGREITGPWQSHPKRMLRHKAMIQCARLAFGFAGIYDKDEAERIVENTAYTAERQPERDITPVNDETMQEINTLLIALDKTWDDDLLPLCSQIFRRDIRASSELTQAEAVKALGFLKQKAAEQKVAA

[14] = target: T5, Redβ, full-length, untagged (wild type) (bacteriophage λ, UniProt P03698 1-261); assay: fluorescence polarisation
T5 sequence: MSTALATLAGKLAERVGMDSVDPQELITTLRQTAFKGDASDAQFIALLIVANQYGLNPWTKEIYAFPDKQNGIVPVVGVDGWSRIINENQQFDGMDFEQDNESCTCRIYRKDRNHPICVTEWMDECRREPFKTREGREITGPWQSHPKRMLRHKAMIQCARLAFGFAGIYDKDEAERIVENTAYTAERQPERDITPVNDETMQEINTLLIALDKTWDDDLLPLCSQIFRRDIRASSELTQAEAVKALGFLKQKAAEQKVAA

Molecule: CC[C@H](C)[C@H](NC(=O)[C@H](CC(=O)O)NC(=O)[C@H](CC(=O)O)NC(=O)[C@H](CC(=O)O)NC(=O)[C@H](Cc1ccccc1)NC(=O)[C@H](CC(=O)O)NC(=O)[C@H](CCSC)NC(=O)[C@H](Cc1c[nH]c2ccccc12)NC(=O)c1ccc2c(c1)C(=O)OC21c2ccc(O)cc2Oc2cc(O)ccc21)C(=O)N1CCC[C@H]1C(=O)N[C@@H](Cc1ccccc1)C(=O)O [SSB-Ct, FAM-WMDFDDDIPF] (5FAM-WMDFDDDIPF-OH)
- Kd [1]: 12.8 ± 3.5 µM

Molecule: FAM-WMDFDDDIPA [SSB-Ct peptide with the F177A mutation]
- binding of F177A SSB-Ct peptide to Redβ [2]: completely failed to interact; also recorded: fails to bind

B1: Redβ^1–250: variant of Redβ lacking the C-terminal 11 residues (protein)
chain: MSTALATLAGKLAERVGMDSVDPQELITTLRQTAFKGDASDAQFIALLIVANQYGLNPWTKEIYAFPDKQNGIVPVVGVDGWSRIINENQQFDGMDFEQDNESCTCRIYRKDRNHPICVTEWMDECRREPFKTREGREITGPWQSHPKRMLRHKAMIQCARLAFGFAGIYDKDEAERIVENTAYTAERQPERDITPVNDETMQEINTLLIALDKTWDDDLLPLCSQIFRRDIRASSELTQAEAVKALGFL
- ssDNA recombination [3]: completely disrupts
- interaction with λ Exo ([4]; Ni-spin pull down): completely disrupts the interaction with λ Exo
- dsDNA recombination [5]: completely disrupts

B2: E256A Redβ: Redβ variant (protein)
chain: MSTALATLAGKLAERVGMDSVDPQELITTLRQTAFKGDASDAQFIALLIVANQYGLNPWTKEIYAFPDKQNGIVPVVGVDGWSRIINENQQFDGMDFEQDNESCTCRIYRKDRNHPICVTEWMDECRREPFKTREGREITGPWQSHPKRMLRHKAMIQCARLAFGFAGIYDKDEAERIVENTAYTAERQPERDITPVNDETMQEINTLLIALDKTWDDDLLPLCSQIFRRDIRASSELTQAEAVKALGFLKQKAAAQKVAA
- SS (%): ssDNA recombination compared to WT [6]: 55%
- SS (%): ssDNA recombination compared to WT ([6]; listed as E256A): 13 to 101%
- DS (%): dsDNA recombination compared to WT [7]: 69%
- DS (%): dsDNA recombination compared to WT ([7]; listed as E256A): 55–106%
- dsDNA relative to ssDNA recombination [5]: decreased dsDNA more than ssDNA recombination

B3: Q240A (protein, UniProt P03698 1-261, looked up, variant Q240A)
Recombination protein bet: MSTALATLAGKLAERVGMDSVDPQELITTLRQTAFKGDASDAQFIALLIVANQYGLNPWTKEIYAFPDKQNGIVPVVGVDGWSRIINENQQFDGMDFEQDNESCTCRIYRKDRNHPICVTEWMDECRREPFKTREGREITGPWQSHPKRMLRHKAMIQCARLAFGFAGIYDKDEAERIVENTAYTAERQPERDITPVNDETMQEINTLLIALDKTWDDDLLPLCSQIFRRDIRASSELTAAEAVKALGFLKQKAAEQKVAA
- interaction with λ Exo [4]: weakened (but did not abolish) the interaction with λ Exo
- dsDNA relative to ssDNA recombination [5]: disrupted dsDNA and ssDNA equally

B4: YbcN: Orf homolog from E. coli cryptic prophage DLP12 (protein, UniProt Q47269 1-151, looked up)
Uncharacterized protein YbcN: MNLSQDGIKLHRGNFTAIGRQIQPYLEEGKCFRMVLKPWREKRSLSQNALSHMWYSEISEYLISRGKTFATPAWVKDALKHTYLGYETKDLVDVVTGDITTIQSLRHTSDLDTGEMYVFLCKVEAWAMNIGCHLTIPQSCEFQLLRDKQEA
- requirement of SSB C-tail for interaction with SSB [8]: does require the C-tail for its interaction with SSB

B5: Redβ C-terminal domain (residues 183-261) (domain or fragment)
chain: AYTAERQPERDITPVNDETMQEINTLLIALDKTWDDDLLPLCSQIFRRDIRASSELTQAEAVKALGFLKQKAAEQKVAA
- binding result [9]: binds
- interaction with λ Exo ([4]; Ni-spin pull down): clear interaction
- interaction with ssDNA or dsDNA [10]: no interaction with ssDNA or dsDNA

Molecule: B6
- stoichiometry N [11]: 3

Molecule: {FAM}-WMDFDDDIPF [SSB C-terminal peptide, fluorescein-labeled (FAM-WMDFDDDIPF)]
- Kd [12]: 0.098 µM
- Kd [13]: 12.8 µM and 12 µM
- Kd [14]: 10.6 µM
